The source of these data is paper PMC4705688.

The target in this data set is His-Cmr (Mycobacterium tuberculosis H37Rv, UniProt P9WMH5 1-244). Briefly: EMSA.
Chain of His-Cmr (P9WMH5 whole entry): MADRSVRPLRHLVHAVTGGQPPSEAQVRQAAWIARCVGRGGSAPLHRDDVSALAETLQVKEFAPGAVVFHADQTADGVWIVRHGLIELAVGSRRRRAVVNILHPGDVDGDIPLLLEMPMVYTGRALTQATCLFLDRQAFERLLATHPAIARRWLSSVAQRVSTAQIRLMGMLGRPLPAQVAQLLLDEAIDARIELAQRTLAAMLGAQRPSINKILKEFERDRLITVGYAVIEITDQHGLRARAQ

B1: 1C1 40 bp overlap (dsDNA)
DNA 1: GCGTGGTTCAGCTTGTCACCGGTGACACTGTGTTGGCTTC
DNA 2: GAAGCCAACACAGTGTCACCGGTGACAAGCTGAACCACGC
With B1, the binding result is “binds”.
